Assay results as given in article PMC8960791 (Communications Biology, 2022).

Molecular target: soluble HLA-E-VL9, HLA-E*01:03 heavy chain refolded with β2-microglobulin and synthetic VL9 peptide (Homo sapiens, HLA-E*01:03, strain)

| Binder | binding result |
| --- | --- |
| CA169 (antibody, V domains shown) VH: EVQLVESGGGLVKPGGSLRLSCAASGFTFSSYSMNWVRQAPGKGLEWVSSISSSSSYIYYADSVKGRFTISRDNAKNSLYLQMNSLRAEDTAVYYCASGVLLEAFDYWGQGTLVTVSS VL: SYVLTQPPSVSVAPGQTARITCGGNNIGSKSVHWYQQKPGQAPVLVVYDDSDRPSGIPERFSGSNSGNTATLTISRVEAGDEADYYCQVWDSSSDHVVFGGGTKLTVL | binds |
| CA173 (antibody, V domains shown) VH: EVQLVESGGGLVKPGGSLRLSCAASGFTFSSYSMNWVRQAPGEGLEWVSSISSSSTYIYYADSVKGRFTISRDNAKNSLYLQMNSLRAEDTAVYYCARDRPAGSSSLGSGYFDLWGRGTLVTVSS VL: not shown | binds |
| CA168 (antibody, V domains shown) VH: QVQLVQSGAEVKKPGSSVKVSCKASGGTFSSYAISWVRQAPGQGLEWMGGIIPIFGTANYAQKFQGRVTITADKSTSTAYMELSSLRSEDTAVYYCARALTYYDFPDYGMDVWGQGTTVTVSS VL: QSALTQPPSASGSPGQSVTISCTGTSSDVGGYNYVSWYQQHPGKVPKLMIYEVTKRPSGVPDRFSGSKSGNTASLTVSGLQAEDEADYYCSSYAGSNNLVFGGGTKLTVL | binds |
| CA177 (antibody, V domains shown) VH: RCSCRSRAPGLVKPSETLSLTCTVSGGSISSYYWSWIRQPPGKGLEWIGYIYYSGSTNYNPSLKSRVTISVDTSKNQFSLKLSSVTAADTAVYYCASHDYTDHAAGYWGQGTLVTVSS VL: not shown | binds |
| CA166 (antibody, V domains shown) VH: EVQLVESGGGLVKPGGSLRLSCAASGFTFSSYSMNWVRQAPGKGLEWVSSISSSSSYIYYADSVKGRFTISRDNAKNSLYLQMNSLRAEDTAVYYCARVMITFGGADYWGQGTLVTVSS VL: DIQMTQSPSSLSASVGDRVTITCRASQNINTYLNWYQKRPGIAPKLLIYGASSLQSGVPSRFSGSGSGTDFTLTISSLQPEDFATYYCQQYHTSPLTFGGGTPVDIK | binds |
| CA178 (antibody, V domains shown) VH: QVQLVQSGAEVKKPGSSVKVSCKASGGTFSSYAISWVRQAPGQGLEWMGGIIPIFGTANYAQKFQGRVTITADESTSTAYMELSSLRSEDTAVYYCARDYGGSYYYEYFQHWGQGTLVTVSS VL: not shown | binds |
| CA171 (antibody, V domains shown) VH: EVQLVESGGGLVQPGGSLRLSCAASGFTFSSYSMNWVRQAPGKGLEWVSYISSSSSTIYYADSVKGRFTISRDNAKNSLYLQMNSLRAEDTAVYYCARTFYSNYLDAFDIWGQGTMVTVSS VL: EIVLTQSPDTLSMCPGERATLSCRASQSVSSYLAWYQQKPGQAPRLLIYDASNRATGIPARFSGSGSGTDFTLTISSLEPEDFAVYYCQQRSNWLSMYTFGQGTKLEIK | binds |

The remaining lines, values ahead:

| binding result | Binder |
| --- | --- |
| binds | CA163 (antibody, V domains shown) VH: QVQLVQSGAGASVKVSCKASGNTFTSYGISWVRQAPGQGLEWMGWIIPYNGNTNYAQKFQGRVTMTTDTSTSTAYMELRSLRSDDTAVYYCARDGEVGAFDNYYYYCGYGVIVTTAS VL: not shown |
| binds | CA175 (antibody, V domains shown) VH: EVQLVESGGGLVQPGGSLRLSCAASGFTFSTYPMNWVRQAPGKGLEWVSYISSSSSTIYYADCVKGRFTISRDNAKNSLYLQMNSLRDEDTAVYYCARYYIAYGMDVWGQGTTVTVSS VL: DIQMTQSPSSMSASVGDRVTITCRASQGISNYLAWFQQKPGKAPKRLIYGASSLHRGVPSRFSGSGSGTEFTLTITSLQPEDFATYYCLQHNTYPRTFGQGTKVEIK |
| binds | CA180 (antibody, V domains shown) VH: QVQLVQSGAEVKKPGASVKVSCKASGYTFTSYGISWVRQAPGQGLEWMGWISAYNGNTNYAQKLQGRVTMTTDTSTSTAYMELRSLRSDDTAVYYCARDLGYSSSWYTSNWFDPWGQGTLVTVSS VL: QSALTQPASVSGSPGQSITISCTGTSSDVGSYNLVSWYQQHPGKAPKLMIYEGSKRPSGVSNRFSGSKSGNTASLTISGLQAEDEADYYCCSYAGSSTVVFGGGTKLTVL |
| binds | CA170 (antibody, V domains shown) VH: EVQLVESGGGLVKPGGSLRLSCAASGFTFSSYSMNWVRQAPGKGLEWVSSISSSSSYIYYADSVKGRFTISRDNAKNSLYLQMNSLRAEDTAVYYCARDRDLLDAFDIWGQGTMVTVSS VL: SYVLTQPPSVSVAPGQTARITCGGNNIGSKSVHWYQQKPGQAPVLVVYDDSDRPSGIPERFSGSNSGNTATLTISRVEAGDEADYYCQVWDSSSDHPWVFGGGTKLTVL |
| binds | CA176 (antibody, V domains shown) VH: QVQLVESGGGVVQPGRSLRLSCAASGFTFSSYGMHWVRQAPGKGLEWVAVISYDGSNKYYADSVKGRFTISRDNSKNTLYLQMNSLRAEDTAVYYCAKDEGSSDFWSGYYASFDYWGQGTLVTVSS VL: DIQMTQSPISLSASVGDRVTITCRASQDISNYLTWYQQKPGKAPKLLIYAASSLQSGVPSRFSGSGSGTDFTLTISNLQPEDFATYYCQQNYSYPCTFGQGTKVEIK |
| binds | CA172 (antibody, V domains shown) VH: QVQLVESGGGLVKPGGSLRLSCAASGFTFSDYYMSWIRQAPGKGLEWVSYISSSSSYTNYADSVKGRFTISRDNAKNSLYLQMNSLRAEDTAVYYCARALRYFDWYDYWGQGTLVTVSS VL: EIVLTQSPDFQSVTPKGKVTITCRASQSIGSSLHWYQQKPDQSPKLLIKYASQSFSGVPSRFSGSGSGTEFTLTISSLQPEDFATYYCQQLNSYSPITFGQGTRLEIK |
